The values below come from patent US20260265373A1.

Assay [1] deals with full-length human ILT7 on cells (human) (UniProt P59901). Kind of assay: competitive FACS on CHOK1 cells expressing human ILT7; competitor Tab1-Alexa488; negative control that sets the reference signal.
For assay [2] the target is unchanged. Description: competitive FACS on CHOK1 cells expressing human ILT7; competitor Tab1-Alexa488; negative control, reference of the calculation.
Assay [3] shares this target. Kind of assay: flow cytometry of human PBMCs, gate on pDCs (CD11c low, HLA-DR+, CD123+).

Sequence of full-length human ILT7 on cells (human) (P59901 other isoform, or with tags, fused parts or gaps): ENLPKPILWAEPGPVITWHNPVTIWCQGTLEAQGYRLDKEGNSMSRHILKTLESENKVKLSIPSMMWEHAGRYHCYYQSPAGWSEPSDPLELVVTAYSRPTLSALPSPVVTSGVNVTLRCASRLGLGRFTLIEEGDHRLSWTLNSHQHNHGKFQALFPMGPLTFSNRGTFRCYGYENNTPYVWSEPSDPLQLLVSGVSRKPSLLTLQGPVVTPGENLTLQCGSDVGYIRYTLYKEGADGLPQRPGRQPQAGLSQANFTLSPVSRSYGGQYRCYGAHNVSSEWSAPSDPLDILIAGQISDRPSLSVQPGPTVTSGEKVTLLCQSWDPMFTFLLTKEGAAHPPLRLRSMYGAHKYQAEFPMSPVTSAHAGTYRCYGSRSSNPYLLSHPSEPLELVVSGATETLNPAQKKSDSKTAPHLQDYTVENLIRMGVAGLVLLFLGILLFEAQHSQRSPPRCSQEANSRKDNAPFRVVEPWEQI

“isotype antibody hIgG1 (negative control)”: in assay [1], the MFI of Tab1-Alexa488 stood at 9670. In assay [2], the Inhibition (%) was 0%. The % targeted cells in subpopulation (pDC) in assay [3] was found to be 2.2%.
